Experimental findings from publication doi:10.1101/2022.08.03.502613 are described below.

For the test, the target named is γ-tubulin ring complex (γ-TuRC) purified using GCP3-GFP-SII (human (endogenous in HEK293T)) (UniProt Q96CW5). The experiment in a line: single-molecule colocalisation by TIRF microscopy.

Substance “mCherry-CDK5RAP2 (full-length, human) (from UniProt Q96SN8 1-1893) (natural protein)” showed a % of CDK5RAP2-positive dots colocalizing with γ-TuRCs, with tubulin of 13% and a % of CDK5RAP2-positive dots colocalizing with γ-TuRCs, without tubulin of 41%.
